Test results as given in US20120196763.

T1: recombinant A. fumigatus ACP (acyl carrier protein), truncated form, pET30 fusion protein
T1 chain: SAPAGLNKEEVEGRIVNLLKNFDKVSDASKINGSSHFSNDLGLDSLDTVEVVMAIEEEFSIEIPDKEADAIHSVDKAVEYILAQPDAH

T2: recombinant C. albicans ACPe (CaO19.9975), pET30 fusion protein
T2 chain: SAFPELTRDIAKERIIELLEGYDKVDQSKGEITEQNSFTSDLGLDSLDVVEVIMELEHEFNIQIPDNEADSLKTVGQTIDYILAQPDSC

T3: recombinant C. albicans ACPg (CaO19.8439), pET30 fusion protein
T3 chain: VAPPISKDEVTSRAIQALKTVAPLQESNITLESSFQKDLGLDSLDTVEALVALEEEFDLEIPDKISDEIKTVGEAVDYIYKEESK

B1: recombinant C. albicans PPTB (CaO19.4812), expressed from pET43.1 (protein)
chain: MPKVGTVLGIGVDIVNSVRFERLLTAKSTSFGTRLSKRILHPEHELPLFQQMHSQRQAQYLTGSWAAKEALFKTLDLNSQKEFNFNQWYRFHDSNGKPFIWNDRYKLSDEEFHLSISHDDSLVIATVLRQKVYQI
B2: recombinant A. fumigatus PPTB (phosphopantetheinyl transferase B), PPTB-NusA fusion protein (protein)
chain: MKLIPFPYPLNIGTDVVHLPRILRLINRPDYFHRFTRRILHEQEQRDFRTRFSLPPPSSGAEKTGLNPITPDMARWLAGRFAAKEAARKAAPAGASSLGWKDVIVRVGEADKGRPEIVYLDPMGCGETGGGRVGKLSISHDGDYVVATVLAAG

Tests used:
[1] = biological target: T1, recombinant A. fumigatus ACP (acyl …)
[2] = biological target: T2, recombinant C. albicans ACPe …
[3] = biological target: T3, recombinant C. albicans ACPg …

| Protein | PPTB activity assay with ACP as substrate [1] | pantetheinylation of ACP with CoA-Bodipy TMR, SDS-PAGE gel under UV light [1] | pantetheinylation of ACP with CoA-Bodipy TMR, SDS-PAGE gel under UV light [2] | pantetheinylation of ACP with CoA-Bodipy TMR, SDS-PAGE gel under UV light [3] | labelling of ACP with CoA-Bodipy TMR, resolved on SDS-PAGE gel [1] |
| --- | --- | --- | --- | --- | --- |
| B1 | Assays for C. albicans PPTB activity using A. fumigatus ACP as a substrate gave a poor signal | ACPe and the A. fumigatus ACP were pantetheinylated weakly | ACPe and the A. fumigatus ACP were pantetheinylated weakly | The C. albicans PPTB pantetheinylated ACPg strongly | – |
| B2 | – | The A. fumigatus PPTB was able to pantetheinylate both A. fumigatus ACP and ACPg | whereas ACPe was pantetheinylated weakly | The A. fumigatus PPTB was able to pantetheinylate both A. fumigatus ACP and ACPg | recombinant PPTB was able to label recombinant ACP (resolved on SDS-PAGE gel) in the presence of magnesium ions and CoA-Bodipy TMR |
